# Test results: paper PMC9646764
# Like-named read-outs stand apart in the source and are kept apart here.
# Legend:
# Test in all cases: BLI
# [1] = target: mTFPI-Fc (Fc-tagged mouse TFPI) (mouse) (UniProt O54819)
# [2] = target: TFPI-Fc (human IgG-Fc-tagged TFPI without the GPI anchor) (UniProt P10646); conditions: for response: parent: est. 0.0, read off a plot
# [3] = target: Chicken TFPI-Fc (chicken); conditions: domain or fragment
# [4] = target: mTFPI-Fc (Fc-tagged mouse TFPI) (UniProt O54819); conditions: 2000 nM fragment, read at end of association (~145 s), parent: est. 0.03, read off a plot
# Chain of mTFPI-Fc (Fc-tagged mouse TFPI) (O54819 29-217): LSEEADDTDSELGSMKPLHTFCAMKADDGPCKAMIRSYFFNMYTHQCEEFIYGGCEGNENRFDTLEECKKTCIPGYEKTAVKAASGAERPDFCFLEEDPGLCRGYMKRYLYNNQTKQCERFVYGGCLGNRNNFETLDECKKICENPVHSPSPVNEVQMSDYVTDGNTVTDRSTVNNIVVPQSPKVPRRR
# Chain of TFPI-Fc (human IgG-Fc-tagged TFPI without the GPI anchor) (P10646 29-209): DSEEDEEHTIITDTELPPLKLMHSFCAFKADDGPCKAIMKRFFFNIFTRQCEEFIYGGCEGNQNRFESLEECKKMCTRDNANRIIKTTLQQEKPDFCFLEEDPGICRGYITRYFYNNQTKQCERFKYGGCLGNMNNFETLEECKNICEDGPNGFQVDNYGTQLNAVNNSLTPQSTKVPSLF
# Chain of mTFPI-Fc (Fc-tagged mouse TFPI) (mouse) (O54819 29-217): as the sequence (O54819 29-217) above
substance,measurement,setting,value
TcdB4.2_(1286-1805) (domain or fragment),Kd,[1],24 nM
same,Kd,[2],50 nM
TcdB2.11_(1286-1805),Kd,[1]; domain or fragment,90.9 nM
same,koff,[1]; domain or fragment,0.00623 s⁻¹
same,Kd,[2]; domain or fragment,133 nM
same,koff,[2]; domain or fragment,0.0109 s⁻¹
same,Kd,[3],205 nM
same,koff,[3],0.0165 s⁻¹
TcdB11.2_(1285-1804) F1506S; D1511Y,response,[4],0.74 nm
TcdB11.2_(1285-1804) F1597S; V1598L,response,[4],0.13 nm
TcdB2.1_(1285-1804) S1495I; L1505P; C1509Y; E1547K,response,[2],0.62 nm
TcdB11.2_(1285-1804) F1506S; D1511Y; F1597S; V1598L,response,[4],0.67 nm
TcdB2.1_(1285-1804) S1495I; L1505P; C1509Y; N1596K; Q1599K,response,[2],0.66 nm
TcdB2.1_(1285-1804) S1495I,response,[2],0.38 nm
TcdB2.1_(1285-1804) L1505P; C1509Y; E1547K; N1596K; Q1599K,response,[2],0.1 nm
